Laboratory results: patent US20190314531A1

Legend:
[1] = target: recombinant human PD-L1(B7-H1)-His-tag protein (catalog #9049-B7, R&D systems) (human) (UniProt Q9NZQ7); assay: FRET competitive inhibition of PD-L1 binding to PD-1
[2] = target: recombinant human PD-L1(B7-H1)-His-tag protein (catalog #9049-B7, R&D systems) (human) (UniProt Q9NZQ7); assay: FRET competitive inhibition of PD-L1-His-tag (80 nM) binding to PD-1-Ig (20 nM)
[3] = target: recombinant human PD-L1(B7-H1)-His-tag protein (catalog #9049-B7, R&D systems) (human) (UniProt Q9NZQ7); assay: FRET competitive inhibition of PD-L1-His-tag binding to PD-1-Ig, Cheng-Prusoff
[4] = target: human PD-L1 on cells (CHO cells stably expressing human PD-L1; MDAMB231, HCC827, H226, doxycycline-treated A549-iPDL1 cells and their tumors) (human) (UniProt Q9NZQ7); assay: radiotracer on hPD-L1 cells, 1 h, gamma counting
[5] = target: human PD-L1 on cells (CHO cells stably expressing human PD-L1; MDAMB231, HCC827, H226, doxycycline-treated A549-iPDL1 cells and their tumors) (human) (UniProt Q9NZQ7); assay: cell-based or functional assay
[6] = target: human PD-L1 on cells (CHO cells stably expressing human PD-L1; MDAMB231, HCC827, H226, doxycycline-treated A549-iPDL1 cells and their tumors) (human) (UniProt Q9NZQ7); assay: flow cytometry on hPD-L1 cells, serial dilutions of WL12; competitor Cy5-AtzMab
[7] = target: human PD-L1 on cells (CHO cells stably expressing human PD-L1; MDAMB231, HCC827, H226, doxycycline-treated A549-iPDL1 cells and their tumors) (human) (UniProt Q9NZQ7); assay: flow cytometry on hPD-L1 cells, serial dilutions of WL12; competitor BD-MIH1-PE
[8] = target: human PD-L1 on cells (CHO cells stably expressing human PD-L1; MDAMB231, HCC827, H226, doxycycline-treated A549-iPDL1 cells and their tumors) (human) (UniProt Q9NZQ7); assay: flow cytometry on Cho-hPD-L1 and MDAMB231 cells; competitors Cy5-AtzMab, Cy5-AveMab, Cy5-DurMab (ends not tied to one mAb)
[9] = target: human PD-L1 on cells (CHO cells stably expressing human PD-L1; MDAMB231, HCC827, H226, doxycycline-treated A549-iPDL1 cells and their tumors) (human) (UniProt Q9NZQ7); assay: flow cytometry, in vitro binding; competitor Cy5-conjugated AtzMab
[10] = target: human PD-L1 on cells (CHO cells stably expressing human PD-L1; MDAMB231, HCC827, H226, doxycycline-treated A549-iPDL1 cells and their tumors) (human) (UniProt Q9NZQ7); assay: hPD-L1 cells, 1 uM blocking dose of WL12; competitor [^64Cu]WL12

human PD-L1 on cells (CHO cells stably expressing human PD-L1; MDAMB231, HCC827, H226, doxycycline-treated A549-iPDL1 cells and their tumors) (human), sequence (Q9NZQ7 19-290): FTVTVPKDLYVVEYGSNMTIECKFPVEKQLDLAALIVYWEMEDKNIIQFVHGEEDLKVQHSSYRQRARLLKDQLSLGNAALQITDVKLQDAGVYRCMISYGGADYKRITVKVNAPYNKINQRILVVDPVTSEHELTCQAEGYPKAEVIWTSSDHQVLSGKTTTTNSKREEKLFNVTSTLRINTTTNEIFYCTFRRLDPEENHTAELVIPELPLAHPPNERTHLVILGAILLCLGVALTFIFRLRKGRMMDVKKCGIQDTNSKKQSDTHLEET
recombinant human PD-L1(B7-H1)-His-tag protein (catalog #9049-B7, R&D systems) (human), sequence (Q9NZQ7 19-239 limits assumed): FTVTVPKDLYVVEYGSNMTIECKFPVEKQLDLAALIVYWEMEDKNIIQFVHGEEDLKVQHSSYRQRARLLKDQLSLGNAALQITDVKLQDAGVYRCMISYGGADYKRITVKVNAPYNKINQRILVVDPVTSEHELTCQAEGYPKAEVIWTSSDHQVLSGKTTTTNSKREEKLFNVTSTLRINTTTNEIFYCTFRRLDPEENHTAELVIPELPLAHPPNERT

Row | Substance | IC50 [1] | IC50 [2] | Ki [3] | uptake of the incubated dose [4] | accumulation of [^64Cu]WL12 in A549-iPDL1 tumors after 72 h doxycycline against A549 control tumors [5] | radioactivity uptake in hPD-L1 tumors at 1 h, percentage of injected dose/g [5] | IC50 [6] | IC50 [7] | inhibitory concentrations [8] | IC50 [9] | reduction in % ID/g of [^64Cu]WL12 in hPD-L1 tumors on co-injection of excess WL12 (50 ug, 2 mg/kg), 2 h [5] | reduction in bound [^64Cu]WL12 [10]
1 | WL12-DOTAGA (WL12D) (peptide) | 23 nM | 22.2 nM | 10.4 nM | – | – | – | – | – | – | – | – | –
2 | WL12-Cu^2+ complex (copper complex of WL12D) (peptide) | 2.9 nM | 2.97 nM | 1.38 nM | – | – | – | – | – | – | – | – | –
3 | [^64Cu]WL12 (peptide) | – | – | – | > 50% | 65% | 14.9 % ID/g | – | – | – | – | – | –
4 | WL12 (unmodified PD-L1 binding peptide) | 22 nM | 20.3 nM | 1.1 nM | – | – | – | 2.5 nM | 37.8 nM | 5 nM | 37.8 nM | > 75% | > 95%
